Source: patent US20250382388A1 (ARGENX, published 2025)
Substitutions are numbered along the chain they refer to. Names may count otherwise. One block for each binder: values may come before it.

Experiments:
human serum albumin [1] = target: T1, human serum albumin (human, UniProt P02768 25-609); assay: SPR Biacore 3000, HSA on chip, pH 5.5
T1 construct: Immobilised on SPR chips; also added in solution to the cell assays; also called HSA; humanSA

human serum albumin [2] = target: T1, human serum albumin; assay: SPR Biacore 3000, HSA on chip, pH 7.4
human serum albumin [3] = target: T1, human serum albumin; assay: SPR Biacore 3000, HSA on chip, ratio of R0 at pH 5.5 to pH 7.4
[4] = target: T2, FcRn-L322A/L323A expressed in HEK293 cells (UniProt P55899 24-365); assay: cell FcRn occupancy, flow cytometry, free FcRn stained with anti-FcRn-Fab AF647, HEK293-FcRn-L322A/L323A cells, with HSA
[5] = target: T2, FcRn-L322A/L323A expressed in HEK293 …; assay: cell FcRn occupancy, flow cytometry, free FcRn stained with anti-FcRn-Fab AF647, HEK293-FcRn-L322A/L323A cells, without HSA
human serum albumin [6] = target: T1, human serum albumin; assay: SPR, pH 5.5
human serum albumin [7] = target: T1, human serum albumin; assay: SPR, pH 7.4 and 5.5
human serum albumin [8] = target: T1, human serum albumin; assay: SPR, pH 7.4 (ka and kd N/A)
human serum albumin [9] = target: T1, human serum albumin; assay: SPR, Langmuir 1:1 or steady state model, pH 5.5
human serum albumin [10] = target: T1, human serum albumin; assay: SPR, Langmuir 1:1 or steady state model, pH 7.4 (ka and kd N/A)
[11] = target: T3, neonatal Fc receptor (FcRn), endogenous in U937 cells (UniProt P55899 24-365; P61769 21-119); assay: cell FcRn occupancy, flow cytometry, free FcRn stained with labelled anti-FcRn Fab, U937 cells, 2,500 nM HSA (SD 0.1)
T3 construct: whole, on cells; Free FcRn was stained inside fixed and permeabilised cells
Procedure: (§1) Next, FcRn occupancy was tested using a cell-based FcRn occupancy assay in the presence or absence of albumin. Briefly, test articles (Fc-ABDEG-VHH molecules) were pre-incubated with HSA for 30 minutes at 37° C., pH 7.4 in FACS buffer. Cells (HEK FcRn mut or U937) were plated in a 96-well microplate. Cells were incubated with test article for two hours, shaking at 37° C., pH 7.4 in FACS buffer. Plates were then transferred immediately on ice and cells were collected by centrifugation at 4° C. Cells stained for viability in FACS buffer at pH 6 and then fixed/permeabilized in permeabilization buffer at pH 6. […] Cells were analyzed by FACS, ensuring that they are kept on ice until immediately prior to analysis.

[12] = target: T3, neonatal Fc receptor (FcRn), endogenous …; assay: cell FcRn occupancy, flow cytometry, free FcRn stained with anti-FcRn-Fab AF647, U937 cells, with HSA
Procedure: as §1

[13] = target: T3, neonatal Fc receptor (FcRn), endogenous …; assay: cell FcRn occupancy, flow cytometry, free FcRn stained with labelled anti-FcRn Fab, U937 cells, 2,500 nM HSA (SD 1.4)
Procedure: as §1

human serum albumin [14] = target: T1, human serum albumin; assay: SPR, pH 5.5 (ka and kd N/A)
[15] = target: T3, neonatal Fc receptor (FcRn), endogenous …; assay: cell FcRn occupancy, flow cytometry, free FcRn stained with labelled anti-FcRn Fab, U937 cells, 2,500 nM HSA (SD 0.5)
Procedure: as §1

human serum albumin [16] = target: T1, human serum albumin; assay: SPR, pH 7.4
human serum albumin [17] = target: T1, human serum albumin; assay: SPR, pH 5.5; pH 5.5
human serum albumin [18] = target: T1, human serum albumin; assay: SPR, Langmuir 1:1 or steady state model, pH 7.4
human serum albumin [19] = target: T1, human serum albumin; assay: not stated there (refers to the earlier SPR)

R0 pH5.5 (human serum albumin [1]): 351 RU
koff (human serum albumin [1]): 0.00016 s⁻¹
R0 pH7.4 (human serum albumin [2]): 115 RU
koff (human serum albumin [2]): 0.00072 s⁻¹
R0 5.5/7.4 (human serum albumin [3]): 3
B1: TA-Fc-ABDEG-2H11 (2H11 parental fused at the C-terminus of Fc-ABDEG) (Fc fusion)
chain: DKTHTCPPCPAPELLGGPSVFLFPPKPKDTLYITREPEVTCVVVDVSHEDPEVKFNWYVDGVEVHNAKTKPREEQYNSTYRVVSVLTVLHQDWLNGKEYKCKVSNKALPAPIEKTISKAKGQPREPQVYTLPPSRDELTKNQVSLTCLVKGFYPSDIAVEWESNGQPENNYKTTPPVLDSDGSFFLYSKLTVDKSRWQQGNVFSCSVMHEALKFHYTQKSLSLSPGGGGGSGGGGSGGGGSGGGGSELQVVESGGGLVQAGGSLRLSCAASGRTFRSNTMGWFRQAPGKEREFVAAITWSGGTTYYADSVKGRFAISGDNAKNTVYLQMNSLKPEDTAVYYCAAEGPKWEPWNGIYHPADFGSWGQGTQVTVSS

R0 pH5.5 (human serum albumin [1]): 164 RU
koff (human serum albumin [1]): 0.000135 s⁻¹
R0 pH7.4 (human serum albumin [2]): 8.24 RU
koff (human serum albumin [2]): 0.0029 s⁻¹
R0 5.5/7.4 (human serum albumin [3]): 19.9
B2: TA-Fc-ABDEG-2H11-v3 (Fc fusion)
chain: B1 chain with P347A

R0 pH5.5 (human serum albumin [1]): 93.9 RU
koff (human serum albumin [1]): 9.72e-05 s⁻¹
R0 pH7.4 (human serum albumin [2]): 6.32 RU
koff (human serum albumin [2]): 0.0012 s⁻¹
R0 5.5/7.4 (human serum albumin [3]): 14.9
B3: TA-Fc-ABDEG-2H11-v12 (Fc fusion)
chain: B1 chain with Y356A
notes: Scaffold as for m24

R0 pH5.5 (human serum albumin [1]): 235 RU
koff (human serum albumin [1]): 0.00174 s⁻¹
R0 pH7.4 (human serum albumin [2]): 0.635 RU
koff (human serum albumin [2]): 0.0025 s⁻¹
R0 5.5/7.4 (human serum albumin [3]): 370
B4: TA-Fc-ABDEG-2H11-v15 (Fc fusion)
chain: B1 chain with D360A

R0 pH5.5 (human serum albumin [1]): 8.91 RU
koff (human serum albumin [1]): 0.00301 s⁻¹
R0 pH7.4 (human serum albumin [2]): 0.571 RU
koff (human serum albumin [2]): 0.00193 s⁻¹
R0 5.5/7.4 (human serum albumin [3]): 16
B5: TA-Fc-ABDEG-2H11-v16 (Fc fusion)
chain: B1 chain with F361A
notes: Scaffold as for m24

% max occupancy [4]: 43.4%
IC50 [4]: 78.3 nM
IC50 [5]: 19.9 nM
B6: TA-Alb23-Fc-ABDEG (Fc fusion)
chain: EVQLLESGGGLVQPGGSLRLSCAASGFTFRSFGMSWVRQAPGKGPEWVSSISGSGSDTLYADSVKGRFTISRDNSKNTLYLQMNSLRPEDTAVYYCTIGGSLSRSSQGTLVTVSSDKTHTCPPCPAPELLGGPSVFLFPPKPKDTLYITREPEVTCVVVDVSHEDPEVKFNWYVDGVEVHNAKTKPREEQYNSTYRVVSVLTVLHQDWLNGKEYKCKVSNKALPAPIEKTISKAKGQPREPQVYTLPPSRDELTKNQVSLTCLVKGFYPSDIAVEWESNGQPENNYKTTPPVLDSDGSFFLYSKLTVDKSRWQQGNVFSCSVMHEALKFHYTQKSLSLSPG
notes: Alb23 VHH on the N-terminus of both Fc domains; also called two-armed N-terminal anti-HSA-Fc-ABDEG

% max occupancy [4]: 63.8%
IC50 [4]: 33 nM
IC50 [5]: 20.2 nM
B7: TA-Fc-ABDEG-Alb23 (Fc fusion)
chain: DKTHTCPPCPAPELLGGPSVFLFPPKPKDTLYITREPEVTCVVVDVSHEDPEVKFNWYVDGVEVHNAKTKPREEQYNSTYRVVSVLTVLHQDWLNGKEYKCKVSNKALPAPIEKTISKAKGQPREPQVYTLPPSRDELTKNQVSLTCLVKGFYPSDIAVEWESNGQPENNYKTTPPVLDSDGSFFLYSKLTVDKSRWQQGNVFSCSVMHEALKFHYTQKSLSLSPGGGGGSGGGGSGGGGSGGGGSEVQLLESGGGLVQPGGSLRLSCAASGFTFRSFGMSWVRQAPGKGPEWVSSISGSGSDTLYADSVKGRFTISRDNSKNTLYLQMNSLRPEDTAVYYCTIGGSLSRSSQGTLVTVSS
notes: also called TA-ABDEG-Alb23

Kd (human serum albumin [6]): 20300 nM
koff (human serum albumin [6]): 0.351 s⁻¹
kon (human serum albumin [6]): 17300 M⁻¹ s⁻¹
fold decrease in affinity against OA-Fc-ABDEG-Alb23 (human serum albumin [7]): > 300 fold
Kd (human serum albumin [8]): 49000 nM
Kd (human serum albumin [9]): 20300 nM
koff (human serum albumin [9]): 0.351 s⁻¹
kon (human serum albumin [9]): 17300 M⁻¹ s⁻¹
Kd (human serum albumin [10]): 49000 nM
IC50 [11]: 2.1 nM
B8: ABDEG-30GS-Alb23-SM (Fc fusion)
chain 1: DKTHTCPPCPAPELLGGPSVFLFPPKPKDTLYITREPEVTCVVVDVSHEDPEVKFNWYVDGVEVHNAKTKPREEQYNSTYRVVSVLTVLHQDWLNGKEYKCKVSNKALPAPIEKTISKAKGQPREPQVYTLPPSRDELTKNQVSLWCLVKGFYPSDIAVEWESNGQPENNYKTTPPVLDSDGSFFLYSKLTVDKSRWQQGNVFSCSVMHEALKFHYTQKSLSLSPGGGGGSGGGGSGGGGSGGGGSGGGGSGGGGSEVQLLESGGGLVQPGGSLRLSCAASGFTFRSAGMSWVRQAPGKGPEWVSSISGSGSDTLYADSVKGRFTISRDNSKNTLYLQMNSLRPEDTAVYYCTIGGSLSRSSQGTLVTVSS
chain 2: DKTHTCPPCPAPELLGGPSVFLFPPKPKDTLYITREPEVTCVVVDVSHEDPEVKFNWYVDGVEVHNAKTKPREEQYNSTYRVVSVLTVLHQDWLNGKEYKCKVSNKALPAPIEKTISKAKGQPREPQVYTLPPSRDELTKNQVSLSCAVKGFYPSDIAVEWESNGQPENNYKTTPPVLDSDGSFFLVSKLTVDKSRWQQGNVFSCSVMHEALKFHYTQKSLSLSPG
notes: also called OA-Fc-ABDEG-30GS-Alb23-F32A; OA-ABDEG-30GS-Alb23-SM

% max occupancy [12]: 56.8%
IC50 [12]: 4.8 nM
IC50 [13]: 2.9 nM
% max occupancy [4]: 57.7%
IC50 [4]: 16.1 nM
IC50 [5]: 6.8 nM
B9: efgartigimod (human IgG1 Fc fragment with ABDEG mutations) (other)
chain: B8 chain 2 with S146T, A148L, V187Y
notes: residues 1-226 (my count) are the Fc part; also called ARGX-113; efgartigimod alfa

Kd (human serum albumin [14]): 19000 nM
Kd (human serum albumin [8]): 31400 nM
IC50 [15]: 2.3 nM
B10: ABDEG-30GS-Alb23-SM-A (Fc fusion)
chain 1: DKTHTCPPCPAPELLGGPSVFLFPPKPKDTLYITREPEVTCVVVDVSHEDPEVKFNWYVDGVEVHNAKTKPREEQYNSTYRVVSVLTVLHQDWLNGKEYKCKVSNKALPAPIEKTISKAKGQPREPQVYTLPPSRDELTKNQVSLWCLVKGFYPSDIAVEWESNGQPENNYKTTPPVLDSDGSFFLYSKLTVDKSRWQQGNVFSCSVMHEALKFHYTQKSLSLSPGGGGGSGGGGSGGGGSGGGGSGGGGSGGGGSEVQLLESGGGLVQPGGSLRLSCAASGFTFRSAGMSWVRQAPGKGPEWVSSISGSGSDTLYADSVKGRFTISRDNSKNTLYLQMNSLRPEDTAVYYCTIGGSLSRSSQGTLVTVSSA
chain 2: B8 chain 2

Kd (human serum albumin [6]): 66.5 nM
koff (human serum albumin [6]): 0.00186 s⁻¹
Kd (human serum albumin [16]): 147 nM
koff (human serum albumin [16]): 0.00336 s⁻¹
kon (human serum albumin [16]): 22900 M⁻¹ s⁻¹
kon (human serum albumin [17]): 27900 M⁻¹ s⁻¹
Kd (human serum albumin [9]): 66.5 nM
koff (human serum albumin [9]): 0.00186 s⁻¹
kon (human serum albumin [9]): 27900 M⁻¹ s⁻¹
Kd (human serum albumin [18]): 147 nM
koff (human serum albumin [18]): 0.00336 s⁻¹
kon (human serum albumin [18]): 22900 M⁻¹ s⁻¹
% max occupancy [4]: 67.9%
IC50 [4]: 11.5 nM
IC50 [5]: 6.4 nM
B11: OA-Fc-ABDEG-Alb23 (Fc fusion)
chain 1: B7 chain with T146W
chain 2: B8 chain 2
notes: also called OA-Fc-ABDEG-20GS-Alb23; ABDEG-20GS-Alb23

fold lower affinity against parental Alb23 VHH (human serum albumin [19]): ~300 fold
B12: Alb23 F32A VHH fragment (VHH)
VHH: EVQLLESGGGLVQPGGSLRLSCAASGFTFRSAGMSWVRQAPGKGPEWVSSISGSGSDTLYADSVKGRFTISRDNSKNTLYLQMNSLRPEDTAVYYCTIGGSLSRSSQGTLVTVSS
notes: also called Alb23-SM
